# According to publication PMC7046727:
# Legend:
# [1] = target: sLif, soluble form of Pseudomonas aeruginosa lipase-specific foldase Lif that lacks the transmembrane domain (TMD) (Pseudomonas aeruginosa); experiment: other fluorescence titration; sLif / sLif_(Y99A) labelled with BDP FL (1.2 nM label, total about 24 nM) with 0-50 uM LipA overnight at 4 °C in 10 mM glycine buffer pH 9; steady-state anisotropy and average translational diffusion time (FCS) on a confocal microscope (sLif_(Y99A): diffusion time only); 1:1 binding model; apparent KD
# [2] = target: sLif_(Y99A), variant of soluble P. aeruginosa Lif with Y99 mutated to alanine (Pseudomonas aeruginosa); experiment: as above
substance,measurement,setting,value
"lipase LipA of Pseudomonas aeruginosa, pre-active form refolded in vitro (enzyme)",Kd,[1],0.029 µM
same,Kd,[2],0.077 µM
